PMC6370476

Biological target: SpyTag-γPFD-Cys (not stated | Methanocaldococcus jannaschii)
Assay: leaching of fluorescent protein from the hydrogel, fluorescence of the buffer

SpyCatcher-mCerulean3
percent leached from the hydrogel after two weeks: 35%
